In test [1] the target is human BDCA2 on human plasmacytoid dendritic cells (human) (UniProt Q8WTT0). Nature of the test: flow cytometry on human PBMC with APCCy7-labelled control antibody, gate Lin- then CD4+CD123+ (pDC).
Test [2] has as its target T1, recombinant human BDCA2 extracellular domain (UniProt Q8WTT0, residues 45-213) (human, UniProt Q8WTT0 45-213).
T1 construct: range 45-213; also called recombinant BDCA2 proteins; BDCA2 proteins
T1 sequence (looked up): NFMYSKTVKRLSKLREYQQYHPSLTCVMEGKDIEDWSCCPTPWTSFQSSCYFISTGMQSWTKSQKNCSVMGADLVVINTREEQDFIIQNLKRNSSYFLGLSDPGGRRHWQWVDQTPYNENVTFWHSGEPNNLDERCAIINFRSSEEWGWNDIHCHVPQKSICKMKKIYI
Nature of the test: SPR (Biacore), antibody as ligand, HsCD303HIS as sample, 25 °C, 1:1 Binding fit; Table 1 prints 7.29 x 10^5, but the sheet's exponent fits the printed kd 3.271E-4 and KD 4.487E-9. A general note: Surface plasmon resonance follows binding to a sensor surface in real time, without labels.

In test [3] the target is T1, recombinant human BDCA2 extracellular …. Nature of the test: SPR / in vitro binding to BDCA2 proteins (FIG. 7, FIG. 8).
Test [4] concerns the target T2, recombinant rhesus BDCA2 extracellular domain (UniProt A0A1D5QFY5, residues 45-212) (rhesus, UniProt G7N5W2 45-211).
T2 construct: also called Monkey BDCA2
T2 sequence: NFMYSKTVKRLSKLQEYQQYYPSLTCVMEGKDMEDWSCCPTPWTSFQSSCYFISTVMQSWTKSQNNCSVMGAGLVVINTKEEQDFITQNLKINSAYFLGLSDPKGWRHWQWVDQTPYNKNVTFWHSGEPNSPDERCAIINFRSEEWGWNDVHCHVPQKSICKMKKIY
Nature of the test: SPR (Biacore), antibody captured on Protein A chip, recombinant BDCA2 ECD flowed over. How it is done:
(§1) BDCA2 antibody binding kinetics were measured using a Biacore surface plasmon resonance (SPR) instrument (GE Life Sciences). Briefly, anti-BDCA2 antibodies were captured on a Protein A sensor chip (GE Life Sciences). The recombinant BDCA2 proteins were then flowed over the captured antibodies over a range of concentrations, at a rate of 50 μL/minute. The data was analyzed to determine kinetic constants using the BIAevaluation software package (GE Life Sciences).

Test [5] has as its target T1, recombinant human BDCA2 extracellular …. The description is as above. How it is done:
as §1

The target in test [6] is T3, BDCA-2 antigen (Biorbyt CLEC4C orb358925) (human, UniProt Q8WTT0).
T3 construct: recombinant protein, construct not described; It is kept apart from m4 because it is a different preparation; also called human BDCA2 antigen
T3 sequence (antigen, looked up): T1 sequence (looked up)
The experiment in a line: ELISA, plate coated with BDCA-2 antigen, detection with HRP anti-human IgG Fc, A450 corrected by A590. As for the experimental part: Briefly, Nunc MaxiSorp 96-well plates were coated with BDCA-2 antigen (Biorbyt CLEC4C orb358925) overnight at 4° C. After washing, the plates were blocked by the Blocking Buffer (1% BSA in 1×PBS). […] After 1 hour incubation at room temperature, the plates were washed and added with the secondary antibody (HIRP-conjugated Goat anti-Human IgG Fc antibody; ThermoFisher A18829) for 1 hour at RT. The signals were developed by adding TMB substrate reagent (ThermoFisher 34021). The signals at 450 nm and 590 nm were read on the plate reader.

Test [7] addresses T4, human BDCA2 on human plasmacytoid dendritic cells (human, UniProt Q8WTT0 1-213).
T4 sequence (looked up): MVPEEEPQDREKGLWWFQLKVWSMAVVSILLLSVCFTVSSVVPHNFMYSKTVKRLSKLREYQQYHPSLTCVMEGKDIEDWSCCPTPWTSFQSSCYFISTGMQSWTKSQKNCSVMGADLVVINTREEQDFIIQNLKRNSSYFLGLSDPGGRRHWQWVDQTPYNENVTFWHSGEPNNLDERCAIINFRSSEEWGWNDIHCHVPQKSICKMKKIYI
The experiment in a line: cell-based or functional assay.

Test [8] addresses T1, recombinant human BDCA2 extracellular …. Nature of the test: SPR (Biacore), antibody captured on anti-human Fc chip, recombinant BDCA2 flowed over; small-scale batch. As for the experimental part:
(§2) BDCA2 antibody binding kinetics were measured using a Biacore surface plasmon resonance (SPR) instrument (GE Life Sciences). Briefly, anti-BDCA2 antibodies were captured on an anti-human Fc chip. The recombinant BDCA2 proteins were then flowed over the captured antibodies over a range of concentrations, at a rate of 50 μL/minute. The data was analyzed to determine kinetic constants using the BIAevaluation software package (GE Life Sciences). The sensorgrams of SPR based affinity testing for all 24 antibodies are shown in FIG. 55, and the biophysical characteristics of all 24 antibodies are summarized in Table 5.

Test [9] has the same target. The experiment in a line: SPR (Biacore), recombinant BDCA2; large-scale (100 mL) batch. How it is done: as §2

Where a chain is given by its changes, count along the chain named. Where “and” joins values, the source holds several entries; their conditions need not be identical. Equal values may be shown once.

The molecule mIgG1-APCCy7 (antibody) gave a % of the gated Lin-CD123+ cells in Q2 (CD123+, APCCy7+) in test [1] of 7.29%.

B1: NPB-303 humanized anti-BDCA2 monoclonal antibody (huIgG1) (antibody, V domains shown)
VH: EVQLVESGGGLVKPGGSLRLSCAASGFTFSTMSWVRQAPGKRLEWVASISSGGSTYYPDSVKGRFTISRDNAKNSLYLQMNSLRAEDTAVYYCARPSYDGYSSWFAYWGQGTLVTVSS
VL: EIVLTQSPATLSLSPGERATLSCKASQSVDYDGDGFMNWYQQKPGQAPRLLIYTASNLESGVPARFSGSGSGTDFTLTISSLEPEDFAVYYCQQSNEDPWTFGGGTKVEIKR
notes: Humanized from mouse mAb 12b, human IgG1/kappa
Turning to B1, the kon (in general, the second-order rate constant of association) is 72900 M⁻¹ s⁻¹ in [2], roughly 210000 M⁻¹ s⁻¹ in [3], 170000 M⁻¹ s⁻¹ in test [4] and 131000 M⁻¹ s⁻¹ in test [8]. The equilibrium dissociation constant (Kd) (as a rule, the free concentration of one partner at which half of the binding sites on the other are occupied at equilibrium, for simple one-to-one binding) was roughly 1 nM in test [3], 9.2 nM in [4] and 1.19 nM in test [8]. Further, the koff (commonly the first-order rate constant of dissociation) in test [3] is roughly 0.00033 s⁻¹; in test [4], 0.00157 s⁻¹; in test [5], 0.000327 s⁻¹; in test [8], 0.000156 s⁻¹. In test [6], the EC50 (read off the curve) – broadly, the concentration at which the effect is half-maximal – was ~0.5 nM and ~0.3 nM. The “IC50 of inhibition of IFNα production by CpG-stimulated human PBMC (multiple donors)” value in test [7] was roughly 3 ng/mL.

B2: NPB-303_A.D (antibody, V domains shown)
VH: B1 VH with D99E
VL: EIVLTQSPATLSLSPGERATLSCKASQSVDYEGEGFMNWYQQKPGQAPRLLIYTASNLESGVPARFSGSGSGTDFTLTISSLEPEDFAVYYCQQSNEDPWTFGGGTKVEIK
notes: whole antibody captured by anti-human Fc; Made at small (3 mL) and large (100 mL) scale
As for B2, in test [9], the Kd was 0.927 nM, the off-rate (koff) came to 0.000133 s⁻¹ and the kon came to 144000 M⁻¹ s⁻¹. Besides, in test [8], the Kd was found to be 1.06 nM, the koff was found to be 0.000138 s⁻¹ and the kon is 130000 M⁻¹ s⁻¹.
